Experiment [1] addresses T1, CD37 (human) (UniProt P11049).
T1 sequence (looked up): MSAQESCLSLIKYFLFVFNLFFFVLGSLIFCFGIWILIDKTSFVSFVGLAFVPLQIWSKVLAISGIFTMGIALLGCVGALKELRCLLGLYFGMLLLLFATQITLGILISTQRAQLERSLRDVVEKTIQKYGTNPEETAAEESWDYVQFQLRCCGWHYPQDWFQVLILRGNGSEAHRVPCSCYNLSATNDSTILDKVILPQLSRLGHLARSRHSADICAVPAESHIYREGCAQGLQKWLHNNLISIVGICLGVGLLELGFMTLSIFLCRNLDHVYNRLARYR
In words: competition flow cytometry on Ramos B-cells; competitor FITC anti-CD37 antibody [lower graph (Detection of FITC-CD37 mAb].

For experiment [2], the target named is CD20 (human) (UniProt P11836). In words: competition flow cytometry on Ramos B-cells; competitor PE anti-CD20 antibody [upper graph (Detection of PE-CD20 mAb]. Background: Flow cytometry measures light scatter and fluorescence of single cells or particles in a stream.
Chain of CD20 (human) (P11836 whole entry): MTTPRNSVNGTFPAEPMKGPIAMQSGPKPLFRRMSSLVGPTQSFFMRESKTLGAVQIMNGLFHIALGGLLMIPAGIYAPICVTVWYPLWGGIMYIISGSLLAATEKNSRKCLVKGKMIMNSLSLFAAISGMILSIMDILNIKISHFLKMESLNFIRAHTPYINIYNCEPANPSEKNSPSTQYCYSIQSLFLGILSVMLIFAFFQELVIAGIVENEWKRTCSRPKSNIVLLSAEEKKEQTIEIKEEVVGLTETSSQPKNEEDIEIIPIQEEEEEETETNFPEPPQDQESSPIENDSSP
The target of experiment [3] is T1, CD37 (human). In words: cell-based or functional assay.
In experiment [4] the target is CD20 (human) (UniProt P11836). The experiment is described as follows: cell-based or functional assay.

Turning to “CD20×CD37 bispecific scorpion (015×016) (bispecific antibody)”, the IC50 (read off the curve) with CD37 (human) [1] is 2 nM; with CD20 (human) [2] it was 5 nM. In addition, the IC50 (nM), direct growth inhibition of DoHH2 cells, 96 h, ATP detection with CD37 (human) [3] and in the experiment with CD20 (human) [4] was 0.05 nM each time. Further, the IC50 (nM), direct growth inhibition of SU-DHL-6 cells, 96 h, ATP detection with CD37 (human) [3] and with CD20 (human) [4] was 0.05 nM each time.

The record behind these values is patent US20140154252A1.
